Measured values as given in the nanobody polyreactivity screen of Harvey et al. (2022).

Experiment: yeast display, Sf9 membrane polyspecificity reagent, FACS + sequencing; frameworks hold sequencing errors
Method in brief: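 Genes from sorted yeast were amplified by colony PCR, read by MiSeq 2 × 250 sequencing and filtered on CDR length. These cells carried a synthetic nanobody library in Saccharomyces cerevisiae BJ5465 and were sorted by FACS into low and high (top ~1%) gates on anti-HA and streptavidin fluorescence. Polyreactivity is labelled according to the gate of origin.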

With “QVQLVESGGGLVQAGGSLRLICAASGSTRRYVMGWYRQAPGKERELVAVISRGGSTYYADSVKGRFTISRDNAKNTVYLQMNSLKPEDTAVYYCNVQPVIPRGGDYWGQGTQVTVSS” the “polyreactivity (PSR sort gate)” value was “high polyreactivity”.

For “QVQLVESGGGLVQAGGSLRLSCAASGISFGVYSLGWYRQAPGKERELVAAISSSGTSTYYADSVKGRFTISRDNAKNTVYLQMNSLKPEDTAVYYCAADYKRNQEVDYWGQGTQVTVSS”, the “polyreactivity (PSR sort gate)” value was “high polyreactivity”.

In the case of “QVQLVESGGGLVQAGGSLRLSCAASGRIFWYNTMGWYRQAPGKERELVATITTGGRTNYADSVKGRFTISRDNAKNTVYLQMNSLKPEDTAVYYCNAVRGLWVTWRYYYWGQGTQVTVSS”, the “polyreactivity (PSR sort gate)” value is reported as “high polyreactivity”.

For “QVQLVDSGGGLVQAGGTLRLSCGASGLIFYLYAMGWFRQAPGKERELVAAITYSGGSTRYADSVKGRFTISRDNAKNTVYFQKNSLKPEDTAVYYCNAAGTAPTELDYWGQGSQVTVSS”, the “polyreactivity (PSR sort gate)” value was “low polyreactivity”.

With “QVQLVESGGGLVQAGGSLRLSCAASGFTFTDYAMGWYRQAPGKERELVAAISGIGGSTYYADSVKGRFTISRDNAKNTVYLQMNSLKPEDTAVYYCAAELTKWRFWGLHDSWGQGTQVTVSS” the “polyreactivity (PSR sort gate)” value was “high polyreactivity”.

With “QVQLVESGGGLVQAGGSLRLSCAASGLTFSDNAMGWYRQAPGKEREFVAAITRNGGSTRYADSVKGRFTISRDNAKNTVYLQMNSLKPEDTAVYYCAAVPVGYDSDWGYYYWGQGTQVTVSS” the “polyreactivity (PSR sort gate)” value was “low polyreactivity”.

In the case of “QVQLVESGGGLVQAGGSLRLSCAASGRIFFGYAMGWYRPAPGKEREFVAAINWIGGRTYYAASVKGRFTISRDNAKNTVYLQMNSLKPEDTAVYYCAKEVSPYWTFDYWGQGTQVTVSS”, the “polyreactivity (PSR sort gate)” value is reported as “low polyreactivity”.

With “QVQLVESGGGLVQAGGSLRLSCAASGYIFINNAMGWYRQAPGKERELVAAISFNSGSTYYADSVKGRFTISRDNAKNTVYLQMNSLKPEDTAVYYCAADYEGWGYDYRGDYWGQGTQVTVSS” the “polyreactivity (PSR sort gate)” value was “low polyreactivity”.

With “QVHLVESGGGLFQAGGSLRLRCAASGFTFASNAMGWYIQAPGKERELVAAITRSGGSTFYADSVKGRFTISRDNAKNTVYLQMKSLKPEDTAVYYCNAAPYGFGWRVRAFTGYDYWGQGTQVTVSS” the “polyreactivity (PSR sort gate)” value was “low polyreactivity”.

With “QVQLVESGGGLVQAGGSLRLSCAASGRIFLWYAMGWYRQAPGKERELVAAISSNGGSTRYADSVKGRFTISRDNAKNTVYLQMNSLKPVDNAVYYCNADVHWNRYPYGGNGYGYWGQGTQVTVSS” the “polyreactivity (PSR sort gate)” value was “low polyreactivity”.

With “QVQLVESGGGLVQAGGSLRLSCAASGRIFYGNTMGWYRQAPGKERELVAAISRSGGSTYYADSVKGRFTISRDNAKNTVYLQMNSLKPEDTAVYYCNARYYRKYDYWGQGTQVTVSS” the “polyreactivity (PSR sort gate)” value was “high polyreactivity”.

For “QVQLVESGGGIVQAGGSLRLSCAASGRIFRIYAMGWYRQAPGKEWELVASISWGGASTYYADSVKGRFTISRDNAKNPVYLQMNSLKPEDTAVYDCAAVGYQGQYDYRSFGSWGQGTQVTVSS”, the “polyreactivity (PSR sort gate)” value was “high polyreactivity”.

In the case of “QVQLVESGGGLVQAGGSLRLSCAASGSTFVGYAMGWYRQAPGKERELVAAISWRGTRTYYADSVKGRFTISRDNAKNTVYLQMNSLKPEDTAVYYCAAVARQGKGYDYWGQGTQVTVSS”, the “polyreactivity (PSR sort gate)” value is reported as “high polyreactivity”.

With “QVQLVESGGGLVQAGGSLRLSCAASGSIFTGYDMGWYRQAPGKERELVAVISTAGRTYYADSVKGRFTISRDNAKNTVYLQMNSLKPEDTAVYYCAKRSYSKDQPRYGYWGQGTQVTVSS” the “polyreactivity (PSR sort gate)” value was “low polyreactivity”.

With “QVQLQESAGGLVQAGGSLRLRCSASGYISCDASMGWYRQAPGKERELAASITQGSSTNYADSVKGRFTIRDNAKNTVYLQMNSLKPEDTAVCYCAVTYPYWGDYTYWGQGTQVTVSS” the “polyreactivity (PSR sort gate)” value was “low polyreactivity”.

With “QVQLVESGGGLVQAGGSLRLSCAASGFTIWPYAMGWYRQAPGKERELVAGITRNGGSTYYADSVKGRFTISRDIAKNTVYLQMNSLKPEDTAVYYCNTKYAVEFDYWGQGTQVTVSS” the “polyreactivity (PSR sort gate)” value was “low polyreactivity”.

With “QVQLVESGGGLVQAGGSLRLSCAASGSTIYYNAMGWYRQAPGKERELVARISRSGGSTYADSVKGRFTISRDNAKNTVYLQMNSVKPEDTAVYYCNADAYGTPEFSSYAVRYDYWGQGTQVTVSS” the “polyreactivity (PSR sort gate)” value was “low polyreactivity”.
